We go through 3 molecules from PMC12749308 (Nature Communications, 2025).

Numbering of substitutions follows the chain as printed. Read-outs that look alike come from different tables or passages of the source.

The target in data set [1] is T1, hPLD3 luminal domain H201A/H416A (hPLD3_HA) (Homo sapiens, UniProt Q8IV08 61-490, H201A;H416A).
T1 sequence: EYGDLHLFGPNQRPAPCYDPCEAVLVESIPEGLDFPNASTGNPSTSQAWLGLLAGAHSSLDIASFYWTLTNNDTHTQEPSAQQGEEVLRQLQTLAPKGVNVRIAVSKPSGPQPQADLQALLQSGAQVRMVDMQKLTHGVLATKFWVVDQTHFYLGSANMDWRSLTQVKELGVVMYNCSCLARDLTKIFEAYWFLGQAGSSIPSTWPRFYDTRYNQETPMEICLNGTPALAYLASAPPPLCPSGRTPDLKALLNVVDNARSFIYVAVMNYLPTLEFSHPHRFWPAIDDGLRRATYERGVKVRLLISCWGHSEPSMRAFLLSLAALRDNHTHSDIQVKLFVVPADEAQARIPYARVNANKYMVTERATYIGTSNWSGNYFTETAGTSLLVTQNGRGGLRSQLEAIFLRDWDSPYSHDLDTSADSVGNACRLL
The data set can be described thus: EMSA.

Data set [2] deals with the molecule itself. The data set can be described thus: cryo-EM structure.
Data set [3] deals with the molecule itself. The data set can be described thus: cryo-EM structure. The source holds these as a separate data set.

For ACGTTCCTGATGCTAAGTATGCACTTCATCGTCAAGCAATGCTATGCAT (ssDNA) [Substrate-I (49 nt)], the binding result in data set [1] was “binds”.

B1: human PLD3 luminal domain, wild type (domain or fragment, UniProt Q8IV08 61-490, looked up)
chain: T1 sequence with A141H, A356H
modifications: four N-linked glycans observed in the cryo-EM structure (all sites except Asn97)
Regarding B1, the “stoichiometry N” value in “cryo-EM structure [2]” came to 2.

B2: human PLD4 luminal domain, wild type (domain or fragment, UniProt Q96BZ4 91-506, looked up)
chain: RDSCQLVLVESIPQDLPSAAGSPSAQPLGQAWLQLLDTAQESVHVASYYWSLTGPDIGVNDSSSQLGEALLQKLQQLLGRNISLAVATSSPTLARTSTDLQVLAARGAHVRQVPMGRLTRGVLHSKFWVVDGRHIYMGSANMDWRSLTQVKELGAVIYNCSHLAQDLEKTFQTYWVLGVPKAVLPKTWPQNFSSHFNRFQPFHGLFDGVPTTAYFSASPPALCPQGRTRDLEALLAVMGSAQEFIYASVMEYFPTTRFSHPPRYWPVLDNALRAAAFGKGVRVRLLVGCGLNTDPTMFPYLRSLQALSNPAANVSVDVKVFIVPVGNHSNIPFSRVNHSKFMVTEKAAYIGTSNWSEDYFSSTAGVGLVVTQSPGAQPAGATVQEQLRQLFERDWSSRYAVGLDGQAPGQDCVWQG
modifications: six N-linked glycans observed in the cryo-EM structure
B2: the “stoichiometry N” value in the data set “cryo-EM structure [3]” is 4.

Usually stoichiometry N stands for a count of units in the complex or per binding partner.
